According to IntAct's records for PubMed 31515488:

B1: Interleukin-1 receptor-associated kinase 4 (Homo sapiens), Q9NWZ3 (parent)
chain: MNKPITPSTYVRCLNVGLIRKLSDFIDPQEGWKKLAVAIKKPSGDDRYNQFHIRRFEALLQTGKSPTSELLFDWGTTNCTVGDLVDLLIQNEFFAPASLLLPDAVPKTANTLPSKEAITVQQKQMPFCDKDRTLMTPVQNLEQSYMPPDSSSPENKSLEVSDTRFHSFSFYELKNVTNNFDERPISVGGNKMGEGGFGVVYKGYVNNTTVAVKKLAAMVDITTEELKQQFDQEIKVMAKCQHENLVELLGFSSDGDDLCLVYVYMPNGSLLDRLSCLDGTPPLSWHMRCKIAQGAANGINFLHENHHIHRDIKSANILLDEAFTAKISDFGLARASEKFAQTVMTSRIVGTTAYMAPEALRGEITPKSDIYSFGVVLLEIITGLPAVDEHREPQLLLDIKEEIEDEEKTIEDYIDKKMNDADSTSVEAMYSVASQCLHEKKNKRPDIKKVQQLLQEMTAS
B2: Keratin, type II cuticular Hb6 (Homo sapiens), O43790 (parent)
chain: MTCGSYCGGRAFSCISACGPRPGRCCITAAPYRGISCYRGLTGGFGSHSVCGGFRAGSCGRSFGYRSGGVCGPSPPCITTVSVNESLLTPLNLEIDPNAQCVKQEEKEQIKSLNSRFAAFIDKVRFLEQQNKLLETKLQFYQNRECCQSNLEPLFEGYIETLRREAECVEADSGRLASELNHVQEVLEGYKKKYEEEVSLRATAENEFVALKKDVDCAYLRKSDLEANVEALIQEIDFLRRLYEEEIRVLQSHISDTSVVVKLDNSRDLNMDCIIAEIKAQYDDIVTRSRAEAESWYRSKCEEMKATVIRHGETLRRTKEEINELNRMIQRLTAEVENAKCQNSKLEAAVAQSEQQGEAALSDARCKLAELEGALQKAKQDMACLIREYQEVMNSKLGLDIEIATYRRLLEGEEQRLCEGVGSVNVCVSSSRGGVVCGDLCASTTAPVVSTRVSSVPSNSNVVVGTTNACAPSARVGVCGGSCKRC
B3: Adenosylhomocysteinase (Homo sapiens), P23526 (parent)
chain: MSDKLPYKVADIGLAAWGRKALDIAENEMPGLMRMRERYSASKPLKGARIAGCLHMTVETAVLIETLVTLGAEVQWSSCNIFSTQDHAAAAIAKAGIPVYAWKGETDEEYLWCIEQTLYFKDGPLNMILDDGGDLTNLIHTKYPQLLPGIRGISEETTTGVHNLYKMMANGILKVPAINVNDSVTKSKFDNLYGCRESLIDGIKRATDVMIAGKVAVVAGYGDVGKGCAQALRGFGARVIITEIDPINALQAAMEGYEVTTMDEACQEGNIFVTTTGCIDIILGRHFEQMKDDAIVCNIGHFDVEIDVKWLNENAVEKVNIKPQVDRYRLKNGRRIILLAEGRLVNLGCAMGHPSFVMSNSFTNQVMAQIELWTHPDKYPVGVHFLPKKLDEAVAEAHLGKLNVKLTKLTEKQAQYLGMSCDGPFKPDHYRY
partner: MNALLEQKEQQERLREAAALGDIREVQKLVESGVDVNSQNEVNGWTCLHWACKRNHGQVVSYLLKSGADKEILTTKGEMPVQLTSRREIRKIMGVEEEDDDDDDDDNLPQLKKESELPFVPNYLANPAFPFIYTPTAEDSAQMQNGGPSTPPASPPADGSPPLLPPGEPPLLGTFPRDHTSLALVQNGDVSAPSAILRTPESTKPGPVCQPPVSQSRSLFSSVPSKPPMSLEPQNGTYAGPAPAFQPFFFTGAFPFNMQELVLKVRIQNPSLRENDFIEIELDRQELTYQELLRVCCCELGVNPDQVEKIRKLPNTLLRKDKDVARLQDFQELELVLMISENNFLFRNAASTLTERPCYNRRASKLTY
B4: Retinoic acid receptor RXR-gamma (Homo sapiens), P48443 (parent)
chain: MYGNYSHFMKFPAGYGGSPGHTGSTSMSPSAALSTGKPMDSHPSYTDTPVSAPRTLSAVGTPLNALGSPYRVITSAMGPPSGALAAPPGINLVAPPSSQLNVVNSVSSSEDIKPLPGLPGIGNMNYPSTSPGSLVKHICAICGDRSSGKHYGVYSCEGCKGFFKRTIRKDLIYTCRDNKDCLIDKRQRNRCQYCRYQKCLVMGMKREAVQEERQRSRERAESEAECATSGHEDMPVERILEAELAVEPKTESYGDMNMENSTNDPVTNICHAADKQLFTLVEWAKRIPHFSDLTLEDQVILLRAGWNELLIASFSHRSVSVQDGILLATGLHVHRSSAHSAGVGSIFDRVLTELVSKMKDMQMDKSELGCLRAIVLFNPDAKGLSNPSEVETLREKVYATLEAYTKQKYPEQPGRFAKLLLRLPALRSIGLKCLEHLFFFKLIGDTPIDTFLMEMLETPLQIT
partner: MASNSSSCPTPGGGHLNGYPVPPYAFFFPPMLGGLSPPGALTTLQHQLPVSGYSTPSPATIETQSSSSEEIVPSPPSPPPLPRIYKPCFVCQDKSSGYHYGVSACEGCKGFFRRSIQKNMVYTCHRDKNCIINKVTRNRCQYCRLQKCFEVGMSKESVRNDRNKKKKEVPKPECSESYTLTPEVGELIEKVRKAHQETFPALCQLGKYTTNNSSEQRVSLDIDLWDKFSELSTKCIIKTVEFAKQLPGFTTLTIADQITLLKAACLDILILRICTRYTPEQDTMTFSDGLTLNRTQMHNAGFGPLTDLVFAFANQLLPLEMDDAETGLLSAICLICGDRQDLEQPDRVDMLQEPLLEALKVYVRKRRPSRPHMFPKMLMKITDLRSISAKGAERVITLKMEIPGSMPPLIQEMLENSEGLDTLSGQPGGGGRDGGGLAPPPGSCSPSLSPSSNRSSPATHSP

Variants of: B1
Details: with myd88_human MYD88, Q99836
myd88_human MYD88, Q99836, sequence (Q99836 whole entry): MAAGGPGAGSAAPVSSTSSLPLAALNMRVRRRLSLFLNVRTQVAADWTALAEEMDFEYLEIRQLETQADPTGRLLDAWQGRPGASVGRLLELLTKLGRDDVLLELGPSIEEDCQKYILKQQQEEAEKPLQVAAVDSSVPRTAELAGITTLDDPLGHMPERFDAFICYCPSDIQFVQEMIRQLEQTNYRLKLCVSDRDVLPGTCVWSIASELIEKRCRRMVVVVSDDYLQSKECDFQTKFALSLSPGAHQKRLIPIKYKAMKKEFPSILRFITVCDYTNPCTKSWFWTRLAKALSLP

| Variant | effect of a mutation on the interaction |
| --- | --- |
| MNKPITPSTYVRCLNVGLIRKLSDFIDPQEGWKKLAVAIKKPSGDDRYNQFHIRRFEALLQTGKSPTSELLFDWGTTNCTVGDLVDLLIQNEFFAPASLLLPDAVPKTANTLPSKEAITVQQKQMPFCDKDRTLMTPVQNLEQSYMPPDSSSPENKSLEVSDTRFHSFSFYELKNVTNNFDERPISVGGNKMGEGGFGVVYKGYVNNTTVAVKKLAAMVDITTEELKQQFDQEIKVMAKCQHENLVELLGFSSDGDDLCLVYVYMPNGSLLDRLSCLDGTPPLSWHMRCKIAQGAANDINFLHENHHIHRDIKSANILLDEAFTAKISDFGLARASEKFAQTVMTSRIVGTTAYMAPEALRGEITPKSDIYSFGVVLLEIITGLPAVDEHREPQLLLDIKEEIEDEEKTIEDYIDKKMNDADSTSVEAMYSVASQCLHEKKNKRPDIKKVQQLLQEMTAS [G298D] | disrupting interaction strength |
| MNKPITPSTYVRCLNVGLIRKLSDFIDPQEGWKKLAVAIKKPSGDDRYNQFHIRRFEALLQTGKSPTSELLFDWGTTNCTVGDLVDLLIQNEFFAPASLLLPDAVPKTANTLPSKEAITVQQKQMPFCDKDRTLMTPVQNLEQSYMPPDSSSPENKSLEVSDTRFHSFSFYELKNVTNNFDERPISVGGNKMGEGGFGVVYKGYVNNTTVAVKKLAAMVDITTEELKQQFDQEIKVMAKCQHENLVELLGFSSDGDDLCLVYVYMPNGSLLDRLSCLDGTPPLSWHMRCKIAQGAANGINFLHENHHIHRDIKSANILLDEAFTAKISDFGLARASEKFAQTVMTSRIVGTTAYMAPEALRGEITPKSDIYSFGVVLLEIITGLPAVDEHHEPQLLLDIKEEIEDEEKTIEDYIDKKMNDADSTSVEAMYSVASQCLHEKKNKRPDIKKVQQLLQEMTAS [R391H] | with no effect |

Other lines, results leading:

| effect of a mutation on the interaction | Variant |
| --- | --- |
| disrupting interaction strength | MNKPITPSTYVRCLNVGLIRKLSDFIDPQEGWKKLAVAIKKPSGDDRYNQFHIRRFEALLQTGKSPTSELLFDWGITNCTVGDLVDLLIQNEFFAPASLLLPDAVPKTANTLPSKEAITVQQKQMPFCDKDRTLMTPVQNLEQSYMPPDSSSPENKSLEVSDTRFHSFSFYELKNVTNNFDERPISVGGNKMGEGGFGVVYKGYVNNTTVAVKKLAAMVDITTEELKQQFDQEIKVMAKCQHENLVELLGFSSDGDDLCLVYVYMPNGSLLDRLSCLDGTPPLSWHMRCKIAQGAANGINFLHENHHIHRDIKSANILLDEAFTAKISDFGLARASEKFAQTVMTSRIVGTTAYMAPEALRGEITPKSDIYSFGVVLLEIITGLPAVDEHREPQLLLDIKEEIEDEEKTIEDYIDKKMNDADSTSVEAMYSVASQCLHEKKNKRPDIKKVQQLLQEMTAS [T76I] |
| disrupting interaction strength | MNKPITPSTYVRCLNVGLIRKLSDFIDPQEGWKKLAVAIKKPSGDDRYNQFHIRRFEALLQTGKSPTSELLFEWGTTNCTVGDLVDLLIQNEFFAPASLLLPDAVPKTANTLPSKEAITVQQKQMPFCDKDRTLMTPVQNLEQSYMPPDSSSPENKSLEVSDTRFHSFSFYELKNVTNNFDERPISVGGNKMGEGGFGVVYKGYVNNTTVAVKKLAAMVDITTEELKQQFDQEIKVMAKCQHENLVELLGFSSDGDDLCLVYVYMPNGSLLDRLSCLDGTPPLSWHMRCKIAQGAANGINFLHENHHIHRDIKSANILLDEAFTAKISDFGLARASEKFAQTVMTSRIVGTTAYMAPEALRGEITPKSDIYSFGVVLLEIITGLPAVDEHREPQLLLDIKEEIEDEEKTIEDYIDKKMNDADSTSVEAMYSVASQCLHEKKNKRPDIKKVQQLLQEMTAS [D73E] |
| disrupting interaction strength | MNKPITPSTYVHCLNVGLIRKLSDFIDPQEGWKKLAVAIKKPSGDDRYNQFHIRRFEALLQTGKSPTSELLFDWGTTNCTVGDLVDLLIQNEFFAPASLLLPDAVPKTANTLPSKEAITVQQKQMPFCDKDRTLMTPVQNLEQSYMPPDSSSPENKSLEVSDTRFHSFSFYELKNVTNNFDERPISVGGNKMGEGGFGVVYKGYVNNTTVAVKKLAAMVDITTEELKQQFDQEIKVMAKCQHENLVELLGFSSDGDDLCLVYVYMPNGSLLDRLSCLDGTPPLSWHMRCKIAQGAANGINFLHENHHIHRDIKSANILLDEAFTAKISDFGLARASEKFAQTVMTSRIVGTTAYMAPEALRGEITPKSDIYSFGVVLLEIITGLPAVDEHREPQLLLDIKEEIEDEEKTIEDYIDKKMNDADSTSVEAMYSVASQCLHEKKNKRPDIKKVQQLLQEMTAS [R12H] |

Variants of: B2
Details: with KRT15, P19012
KRT15, P19012, sequence (P19012 whole entry): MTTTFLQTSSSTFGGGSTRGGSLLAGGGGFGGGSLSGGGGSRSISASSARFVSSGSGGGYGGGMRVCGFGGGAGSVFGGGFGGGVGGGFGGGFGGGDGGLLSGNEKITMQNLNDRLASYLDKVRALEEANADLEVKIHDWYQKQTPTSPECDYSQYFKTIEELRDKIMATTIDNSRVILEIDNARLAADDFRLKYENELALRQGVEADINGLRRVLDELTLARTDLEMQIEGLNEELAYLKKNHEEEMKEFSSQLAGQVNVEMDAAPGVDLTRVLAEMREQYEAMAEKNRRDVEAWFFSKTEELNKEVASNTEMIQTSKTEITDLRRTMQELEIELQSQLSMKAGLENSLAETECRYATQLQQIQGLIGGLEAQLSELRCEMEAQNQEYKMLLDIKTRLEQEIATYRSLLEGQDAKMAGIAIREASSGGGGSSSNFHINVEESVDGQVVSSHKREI

| Variant | effect of a mutation on the interaction |
| --- | --- |
| MTCGSYCGGRAFSCISACGPRPGRCCITAAPYRGISCYRGLTGGFGSHSVCGGFRAGSCGRSFGYRSGGVCGPSPPCITTVSVNESLLTPLNLEIDPNAQCVKQEEKEQIKSLNSRFAAFIDKVRFLEQQNKLLETKLQFYQNRECCQSNLEPLFEGYIETLRREAECVEADSGRLASELNHVQEVLEGYKKKYEEEVSLRATAENEFVALKKDVDCAYLRKSDLEANVEALIQEIDFLRRLYEEEIRVLQSHISDTSVVVKLDNSRDLNMDCIIAEIKAQYDDIVTRSRAEAESWYRSKCEEMKATVIRHGETLRRTKEEINELNCMIQRLTAEVENAKCQNSKLEAAVAQSEQQGEAALSDARCKLAELEGALQKAKQDMACLIREYQEVMNSKLGLDIEIATYRRLLEGEEQRLCEGVGSVNVCVSSSRGGVVCGDLCASTTAPVVSTRVSSVPSNSNVVVGTTNACAPSARVGVCGGSCKRC [R327C] | with no effect |
| MTCGSYCGGRAFSCISACGPRPGRCCITAAPYRGISCYRGLTGGFGSHSVCGGFRAGSCGRSFGYRSGGVCGPSPPCITTVSVNESLLTPLNLEIDPNAQCVKQEEKEQIKSLNSRFAAFIDKVRFLEQQNKLLETKLQFYQNRECCQSNLEPLFEGYIETLRREAECVEADSGRLASELNHVQEVLEGYKKKYEEEVSLRATAENEFVALKKDVDCAYLRKSDLEANVEALIQEIDFLRRLYEEEIRVLQSHISDTSVVVKLDNSRDLNMDCIIAEIKAQYDDIVTRSRAEAESWYRSKCEEMKATVIRHGETLRRTKEEINELNRMIQRLTAEVENAKCQNSKLEAAVAQSEQQGEAALSDARCKLAELEGALQKAKQDMACLIREYQEVMNSKLGLDIEIATYRHLLEGEEQRLCEGVGSVNVCVSSSRGGVVCGDLCASTTAPVVSTRVSSVPSNSNVVVGTTNACAPSARVGVCGGSCKRC [R408H] | with no effect |

Variants of: B3
Details: with anr40_human ANKRD40, Q6AI12

| Variant | effect of a mutation on the interaction |
| --- | --- |
| I92V | with no effect |

Variants of: B4
Details: with rara_human RARA

| Variant | effect of a mutation on the interaction |
| --- | --- |
| MYGNYSHFMKFPAGYGGSPGHTGSTSMSPSAALSTGKPMDSHPSYTDTPVSAPRTLSAVGTPLNALGSPYRVITSAMGPPSGALAVPPGINLVAPPSSQLNVVNSVSSSEDIKPLPGLPGIGNMNYPSTSPGSLVKHICAICGDRSSGKHYGVYSCEGCKGFFKRTIRKDLIYTCRDNKDCLIDKRQRNRCQYCRYQKCLVMGMKREAVQEERQRSRERAESEAECATSGHEDMPVERILEAELAVEPKTESYGDMNMENSTNDPVTNICHAADKQLFTLVEWAKRIPHFSDLTLEDQVILLRAGWNELLIASFSHRSVSVQDGILLATGLHVHRSSAHSAGVGSIFDRVLTELVSKMKDMQMDKSELGCLRAIVLFNPDAKGLSNPSEVETLREKVYATLEAYTKQKYPEQPGRFAKLLLRLPALRSIGLKCLEHLFFFKLIGDTPIDTFLMEMLETPLQIT [A86V] | with no effect |
